Experimental findings from patent publication US20240182575A1 (Ablynx, published 2024) are described below.

Experiment [1] deals with T1, HuCD86-HuIgG1 (fusion protein of the extracellular part of human CD86 and human Fc gamma 1, R&D Systems Cat … (human, UniProt P42081 24-247)).
T1 construct: extracellular domain; bought; also called CD86-IgG1; CD86-Ig; not shown: human Fc gamma 1
T1 sequence (looked up): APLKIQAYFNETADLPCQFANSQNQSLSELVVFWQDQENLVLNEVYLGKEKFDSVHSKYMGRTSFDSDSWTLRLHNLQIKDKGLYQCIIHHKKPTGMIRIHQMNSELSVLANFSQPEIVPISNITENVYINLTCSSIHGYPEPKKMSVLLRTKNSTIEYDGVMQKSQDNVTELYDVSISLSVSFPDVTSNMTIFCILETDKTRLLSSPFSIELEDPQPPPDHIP
Briefly: SPR, Biacore 3000, antigen amine-coupled. The method, then:
(§1) Affinity constants (Kd) of individual purified Nanobody clones were determined by surface plasmon resonance on a Biacore 3000 instrument. […] Remaining reactive groups were inactivated using ethanolamine. Nanobody binding was assessed at 1 and 0.1 microM. Each sample was injected for 4 min at a flow rate of 45 μl/min to allow for binding to chip-bound antigen. Next, binding buffer without Nanobody was sent over the chip at the same flow rate to allow for dissociation of bound Nanobody. After 2 min, remaining bound analyte was removed by injecting regeneration solution (50 mM NaOH or Glycine/HCl pH 1.5). Binding curves obtained at different concentrations of Nanobody were used to calculate Kd values.
(In general: In SPR one partner is held on a chip, and binding of the other changes the refractive index at the surface.)

Experiment [2] concerns the target T2, HuCD80-HuIgG1 (fusion protein of the extracellular part of human CD80 and human Fc gamma 1, R&D Systems Cat … (human, UniProt P33681 35-242)).
T2 construct: extracellular domain; bought, produced in NS0 cells; also called CD80-IgG1; CD80-Ig; not shown: human Fc gamma 1
T2 sequence (looked up): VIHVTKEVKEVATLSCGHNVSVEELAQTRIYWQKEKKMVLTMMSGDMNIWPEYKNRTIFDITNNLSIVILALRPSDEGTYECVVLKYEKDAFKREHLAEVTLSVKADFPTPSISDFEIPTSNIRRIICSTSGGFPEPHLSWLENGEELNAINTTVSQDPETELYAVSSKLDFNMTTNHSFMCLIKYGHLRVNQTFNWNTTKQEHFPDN
Briefly: SPR, Biacore 3000, antigen amine-coupled. How it is done: as §1

For experiment [3], the target named is T3, HuCD86-MuIgG2a (fusion protein of the extracellular part of human CD86 and mouse Fc gamma 2a, Ancell Cat … (human; mouse, UniProt P42081 24-247; P01863 98-330 = IgG part).
T3 construct: extracellular domain;domain: Fc; bought; also called B7-2
The experiment is described as follows: competition ELISA, coated CD86-Ig; blocked ligand CD28-Ig.

Experiment [4] has as its target T4, HuCD80-MuIgG2a (extracellular (173aa) domain of human CD80 fused to murine IgG2a Fc+hinge (232 aa), Ancell … (human; mouse, UniProt P33681 35-242).
T4 construct: extracellular domain; bought, produced in CHO cells; also called B7-1-muFc; not shown: murine IgG2a Fc+hinge (232 aa)
T4 sequence (looked up): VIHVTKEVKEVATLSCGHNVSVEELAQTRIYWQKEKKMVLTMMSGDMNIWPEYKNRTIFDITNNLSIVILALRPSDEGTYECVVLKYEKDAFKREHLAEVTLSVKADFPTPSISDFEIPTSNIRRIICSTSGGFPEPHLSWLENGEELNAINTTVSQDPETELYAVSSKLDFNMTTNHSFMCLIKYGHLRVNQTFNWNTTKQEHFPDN
The experiment is described as follows: competition ELISA, coated CD80-Ig; blocked ligand CD28-Ig. The method, then: Inhibition was determined based on OD values of controls having received no Nanobody (high control) or no CD28- or CTLA4-HuIgG1 fusion protein (low control).

B1: CD8086PMP1E11 (VHH)
VHH: EVQLVESGGGLVQPGGSLRLSCAASGFTLDYSAIGWFRQAPGKEREGVSYISSSDGSTYYADSVEGRFTISRDNAKNTLYLQMNSLKPEDTAVYYCAAGGPFTVSTMPWLANYWGQGTQVTVSS
notes: not shown: C-terminal c-myc tag and His6 tag
B1: the values for the Kd in experiment [1] and in experiment [2] were 553 nM and 23 nM, respectively. The koff (commonly the first-order rate constant of dissociation) in experiment [1] is 0.002 s⁻¹; in experiment [2] it was 0.0004 s⁻¹. The kon (usually a measure of how fast the partners come together) came out at 3600 M⁻¹ s⁻¹ in experiment [1] and 18000 M⁻¹ s⁻¹ in experiment [2]. The “IC50 (read off the curve)” value was roughly 10 nM in experiment [3] and roughly 400 nM in experiment [4].
